Here are results for one variant from article PMC3968163.

First the molecules themselves.
B1: unnamed (parent)
chain 1: SIDPADLDESWDYIFETTESPSSD
chain 2: MSHSGAAIFEKVSGIIAINEDVSPAELTWRSTDGDKVHTVVLSTIDKLQATPASSEKMMLRLIGKVDESKKRKDNEGNEVVPKPQRHMFSFNNRTVMDNIKMTLQQIISRYKDAD

The assay covers variants of B1. In words: ITC. The note with it: with partner chain of the complex shown; 25°C in a 20 mM Tris pH 7.4.
As for chain 1 SIDPADLDESWDYSFETTESPSSD, the Kd is 4.2 µM.
